According to patent KR20220139244A (dated 2022):
Where two headings read alike, the source gives them in different places.

Experiments:
Test in all cases: cell-based or functional assay
[1] = target: T1, SARS-CoV-2 spike D614 (pseudovirus) (SARS-CoV-2, UniProt P0DTC2 14-1273)
[2] = target: T1, SARS-CoV-2 spike D614 (pseudovirus); remark: listed apart in the source
[3] = target: T1, SARS-CoV-2 spike D614 (pseudovirus); remark: listed apart in the source
[4] = target: T1, SARS-CoV-2 spike D614 (pseudovirus); remark: listed apart in the source
[5] = target: T1, SARS-CoV-2 spike D614 (pseudovirus); remark: listed apart in the source

Row | Binder | IC50 [1] | IC50 [2] | IC50 [3] | IC50 [4] | IC50 [5]
1 | No. 139 antibody (Full IgG) (antibody, V domains shown) VH: QITLKESGPTLVKPTQTLTLTCSFSGFSLSTSGVGVGWIRQPPGKALEWLALIDWDDNKYHTTSLKTRLTISKDTSKNQVVLTMTNMDPVDTATYYCARIPGFLRYRNRYYYYGMDVWGQGTTVTVSS VL: ELVLTQPPSVSAAPGQKVTISCSGSSSNIGNNYVSWYQQLPGTAPKLLIYDNNKRPSGIPDRFSGSKSGTSATLGITGLQTGDEADYYCGTWDSSLSAGVFGGGTELTVL | 0.378 ng/mL | 0.35 ng/mL | 0.535 ng/mL | 0.535 ng/mL | –
2 | No. 32 antibody (Full IgG; Table 3/4 numbering) (antibody, V domains shown) VH: EVQLVQSGGGLIQPGGSLRLSCAASEFIVSSNYMTWVRQAPGKGLEWVSIIYPGGSTYYADSVKGRFTISRDNSKNTLYLRMNSLRAEDTAVYYCARDLPLTGTTLDYWGQGTLVTVSS VL: not shown | – | – | – | 4.34 ng/mL | 4.34 ng/mL
